Test results published in paper PMC6475865.

Assays:
[1] = system: Integrase IN_A (HIV-1 subtype A strain FSU-A); experiment: DRaCALA (nitrocellulose); conditions: 20 mM HEPES pH 7.2, 10 mM DTT, 7.5 mM MgCl2, 25 C; DRaCALA: 5 nM DNA, 0-500 nM IN, 20 min
[2] = system: Integrase IN_CRF consensus (HIV-1 CRF63_02A1 (consensus of Siberian/Ural isolates)); experiment: DRaCALA (nitrocellulose); conditions: 20 mM HEPES pH 7.2, 10 mM DTT, 7.5 mM MgCl2, 25 C; DRaCALA: 5 nM DNA, 0-500 nM IN, 20 min

**Q.** How did the Kd [1] turn out when “GTGTGGAAAATCTCTAGCAGT (double strand) [U5B/U5A duplex]” was run?
**A.** 25 nM

**Q.** And the Kd [2]?
**A.** 23 nM
